From paper PMC4658703 (Science (New York, N.Y.), 2012)
Where two headings read alike, the source gives them in different places.

Assays:
[1] = molecular target: T1, Human IGF2R domain 11 (wild type) (human, UniProt P11717 1508-1650); test: SPR
[2] = molecular target: T1, Human IGF2R domain 11 (wild type); test: SPR; remark: listed apart in the source

T1 sequence (P11717 1508-1650): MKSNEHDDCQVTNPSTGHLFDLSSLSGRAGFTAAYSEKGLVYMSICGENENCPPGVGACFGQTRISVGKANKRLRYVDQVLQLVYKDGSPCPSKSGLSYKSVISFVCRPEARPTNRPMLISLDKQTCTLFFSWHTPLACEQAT

Kd [1]: 63 nM
Kd [2]: 46 nM
B1: Chicken IGF2 (ligand, UniProt P33717 24-91, looked up)
chain: AYGTAETLCGGELVDTLQFVCGDRGFYFSRPVGRNNRRINRGIVEECCFRSCDLALLETYCAKSVKSE
modifications: ends and bridges not checked; also: biotin, site not given here
